We go through 38 variants from the RNAGym collection of RNA variant scans (doi:10.7554/elife.80360).

B1: Hairpin Ribozyme (parent)
chain: GUCCUCUUUCACGUGCGCGUGAAAGAGAGAAGUGAACCAGAGAAACACACGUUGUGGUAUAUUACCUGGUA

Variants of B1 are the subject of this series. The series can be described thus: self-cleavage, relative activity (ratio to wild type); higher = more cleavage; co-transcriptional.
With GUCCUCUUUCACGUGCGCGUGAAAGAGAGAAGUGAACCCGAGAAACACGCGUUGUGGUAUAUUACCUGGUA, the self-cleavage worked out at 0.208.

Consider GUCCUCUUUCACGUGCGCGUGAAAGAGAGAAGUGAACCCGUGAAACACACGUUGUGGUAUAUUACCUGGUA, for which the self-cleavage came out at 0.406.

As to GUCCUCUUUCACGUGCGCGUGAAAGAGAGAAGUGAACCCGAGAAGCACACGUUGUGGUAUAUUACCUGGUA, the self-cleavage was determined as 0.105.

Turning to GUCCUCUUUCACGUGCGCGUGAAAGAGAGAAGUGAACUAGAGAAACACGCGUUGUGGUAUAUUACCUGGUA, the self-cleavage worked out at 0.343.

On to GUCCUCUUUCACGUGCGCGUGAAAGAGAGAAGUGAACUAGAGAAACACUCGUUGUGGUAUAUUACCUGGUA, for which the self-cleavage was 0.137.

Take GUCCUCUUUCACGUGCGCGUGAAAGAGAGAAGUGAACUAGAGAAACACACGUUGUGGUAUAUUGCCUGGUA: the self-cleavage turned out to be 0.306.

In the case of GUCCUCUUUCACGUGCGCGUGAAAGAGAGAAGUGAACUAGAGAAACACACGUUGUGGUAUAUUCCCUGGUA, the self-cleavage was determined as 0.233.

Regarding GUCCUCUUUCACGUGCGCGUGAAAGAGAGAAGUGAACCCGAGAAACGCACGUUGUGGUAUAUUACCUGGUA, the self-cleavage worked out at 0.172.

In the case of GUCCUCUUUCACGUGCGCGUGAAAGAGAGAAGUGAACCCGAGACACACACGUUGUGGUAUAUUACCUGGUA, the self-cleavage is 0.17.

Regarding GUCCUCUUUCACGUGCGCGUGAAAGAGAGAAGUGAACUAGAGAAACACACGUUGUGGGAUAUUACCUGGUA, the self-cleavage was determined as 0.447.

In the case of GUCCUCUUUCACGUGCGCGUGAAAGAGAGAAGUGAACUAGAGAAACACACGUUGUGGUAUAUUACCUGUUA, the self-cleavage worked out at 0.283.

In the case of GUCCUCUUUCACGUGCGCGUGAAAGAGAGAAGUGAACUAGAGAAACACACGUUGUGGUAUAUUAUCUGGUA, the self-cleavage was determined as 0.12.

Take GUCCUCUUUCACGUGCGCGUGAAAGAGAGAAGUGAACUAGAGAAACACACGUUGUGGUAUAUUACCUGGAA: the self-cleavage came out at 0.522.

In the case of GUCCUCUUUCACGUGCGCGUGAAAGAGAGAAGUGAACUAGAGAAACACAUGUUGUGGUAUAUUACCUGGUA, the self-cleavage stood at 0.249.

Regarding GUCCUCUUUCACGUGCGCGUGAAAGAGAGAAGUGAACUAGAGAAACACACGUUGUGGUAUAUUACGUGGUA, the self-cleavage was 0.255.

Regarding GUCCUCUUUCACGUGCGCGUGAAAGAGAGAAGUGAACCCGAGGAACACACGUUGUGGUAUAUUACCUGGUA, the self-cleavage worked out at 0.085.

In the case of GUCCUCUUUCACGUGCGCGUGAAAGAGAGAAGUGAACUAGAGAAAUACACGUUGUGGUAUAUUACCUGGUA, the self-cleavage amounted to 0.0928.

With GUCCUCUUUCACGUGCGCGUGAAAGAGAGAAGUGAACUAGAGAAACACACGUUGUGGUGUAUUACCUGGUA, the self-cleavage was 0.194.

On to GUCCUCUUUCACGUGCGCGUGAAAGAGAGAAGUGAACCCGAGAAACACACGUUGUGGUAUAUUACCUGGUA, for which the self-cleavage is 0.539.

Turning to GUCCUCUUUCACGUGCGCGUGAAAGAGAGAAGUGAACUAGAGAAACAUACGUUGUGGUAUAUUACCUGGUA, the self-cleavage was determined as 0.174.

Consider GUCCUCUUUCACGUGCGCGUGAAAGAGAGAAGUGAACUAGAGAAACAGACGUUGUGGUAUAUUACCUGGUA, for which the self-cleavage worked out at 0.123.

GUCCUCUUUCACGUGCGCGUGAAAGAGAGAAGUGAACUAGAGAAACACACGUUGUGGUAUAUUACCCGGUA: the self-cleavage turned out to be 0.121.

On to GUCCUCUUUCACGUGCGCGUGAAAGAGAGAAGUGAACCCGAGAAACACACGUUGUGGUCUAUUACCUGGUA, for which the self-cleavage came out at 0.114.

GUCCUCUUUCACGUGCGCGUGAAAGAGAGAAGUGAACCCGAGAAACACACGUUGUGGUUUAUUACCUGGUA: the self-cleavage stood at 0.172.

On to GUCCUCUUUCACGUGCGCGUGAAAGAGAGAAGUGAACCCGAGAAACACACGUUGUGGUGUAUUACCUGGUA, for which the self-cleavage stood at 0.126.

For GUCCUCUUUCACGUGCGCGUGAAAGAGAGAAGUGAACUAGAGAAACACACGUUAUGGUAUAUUACCUGGUA, the self-cleavage was 0.269.

With GUCCUCUUUCACGUGCGCGUGAAAGAGAGAAGUGAACUAGAGAAACACACGUUGUGGUAUAUUACCUUGUA, the self-cleavage was 0.605.

With GUCCUCUUUCACGUGCGCGUGAAAGAGAGAAGUGAACUAGAGAAACACACGUUGUGGUAUAUUACCUAGUA, the self-cleavage came to 0.931.

For GUCCUCUUUCACGUGCGCGUGAAAGAGAGAAGUGAACUAGAGAAACACACGUUGUGGUAUGUUACCUGGUA, the self-cleavage came out at 0.26.

As to GUCCUCUUUCACGUGCGCGUGAAAGAGAGAAGUGAACUAGAGAAACACACGUUGUGGUAUCUUACCUGGUA, the self-cleavage amounted to 0.197.

On to GUCCUCUUUCACGUGCGCGUGAAAGAGAGAAGUGAACUAGAGAAACACACGUUGAGGUAUAUUACCUGGUA, for which the self-cleavage came out at 0.168.

For the variant GUCCUCUUUCACGUGCGCGUGAAAGAGAGAAGUGAACUAGAGAAACACACGAUGUGGUAUAUUACCUGGUA, the self-cleavage was 0.509.

On to GUCCUCUUUCACGUGCGCGUGAAAGAGAGAAGUGAACUAGAGAAACACACGGUGUGGUAUAUUACCUGGUA, for which the self-cleavage was 0.261.

For GUCCUCUUUCACGUGCGCGUGAAAGAGAGAAGUGAACUAGAGAAACACACGUUGUGUUAUAUUACCUGGUA, the self-cleavage is 0.175.

As to GUCCUCUUUCACGUGCGCGUGAAAGAGAGAAGUGAACUAAAGAAACACACGUUGUGGUAUAUUACCUGGUA, the self-cleavage was 0.203.

On to GUCCUCUUUCACGUGCGCGUGAAAGAGAGAAGUGAACUAGAGAAACACACGUUGUGGUAUAGUACCUGGUA, for which the self-cleavage is 0.124.

As for GUCCUCUUUCACGUGCGCGUGAAAGAGAGAAGUGAACUAGAGAAACACACAUUGUGGUAUAUUACCUGGUA, the self-cleavage came out at 0.786.

Regarding GUCCUCUUUCACGUGCGCGUGAAAGAGAGAAGUGAACUAGAGAAACACACUUUGUGGUAUAUUACCUGGUA, the self-cleavage worked out at 0.774.
